Measurements reported in US20220357345A1.
pKd: −log10 of the molar value.

Experiments:
[1] = molecular target: Aβ1-42 labelled with HiLyte Fluor 488 (UniProt P05067); assay: microscale thermophoresis (Monolith NT.115); HiLyte Fluor 488-labelled Aβ1-42 at 80 nM in PBS, PPP serially diluted; freshly dissolved Aβ1-42
[2] = molecular target: Aβ1-42 labelled with HiLyte Fluor 488 (UniProt P05067); assay: microscale thermophoresis (Monolith NT.115); labelled Aβ1-42 kept at 4 °C for one week (oligomers and fibres), PPP serially diluted

Sequence of UniProt P05067 (P05067 672-713 limits assumed): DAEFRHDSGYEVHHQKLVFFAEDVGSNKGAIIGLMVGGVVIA

“Aβ-binding polymer (phagocytosis-promoting peptide, PPP): small peptide chain randomly synthesized from glutamic acid, lysine, alanine and tyrosine, molecular weight 4 kD to 52 kD (average 6.5 kD)” gave a pKd [1] of 8.18 and a pKd [2] of 7.60.
